What was measured:
Experiment in all cases: cell-based or functional assay
[1] = molecular target: S protein of SARS-CoV-2 alpha strain 1 (JPN/QK002/2020, Accession ID EPI_ISL_768526; on infectious virus) (SARS-CoV-2, UniProt P0DTC2 14-1273)
[2] = molecular target: S protein of SARS-CoV-2 delta strain JPN/TKYTK1734/2021 (on infectious virus) (SARS-CoV-2, UniProt P0DTC2 14-1273)
[3] = molecular target: S protein of SARS-CoV-2 alpha strain 2 (Accession ID EPI_ISL_804007; on infectious virus) (SARS-CoV-2, UniProt P0DTC2 14-1273)

Measured: 中和活性 IC50 (inhibition of infection of VeroE6/TMPRSS2 cells)

B1: EV053273 (antibody, V domains shown)
VH: QVQLVQSGAEVKEPGTSVKVSCKASGYIFTGYYIHWVRQAPGQGLEWMGWINPNSGGRNYTQKFQGRVTMTRDKSISTVYMELSGLRSDDTAIYYCARDNSWSTVQFCLDYWGQGTLVTVSS
VL: QSALTQPPSASGSPGQSVTISCTGTSSDVGSYNYVSWYQQYPGKAPKLMIYEVSKRPSGVPDRFSGSKSGNTASLTVSGLQAEDEADYYCSSYGGSNNLVFGGGTKLTVLG
≤ 10 ng/mL: [1] | [2] | [3]

Source: patent WO2022250107A1 (dated 2022)
